Reference: article PMC13480635

Key:
[1] = target: Trypanosoma brucei gambiense variant surface glycoprotein LiTat 1.3 (Lille Trypanozoon antigen type 1.3) (Trypanosoma brucei gambiense); assay: SAXS; SEC-SAXS, Shodex KW404-4F column, 20 mM HEPES, 150 mM NaCl, 3% glycerol, pH 7.4; 50 uL at 15.51 mg/mL injected; curve from the first (major) elution peak
[2] = target: Trypanosoma brucei gambiense variant surface glycoprotein LiTat 1.3 (Lille Trypanozoon antigen type 1.3) (Trypanosoma brucei gambiense); assay: SEC-MALS; Agilent Bio SEC-3 column, PBS; samples at 0.5 mg/mL and 5 mg/mL, 50 uL injected

## Trypanosoma brucei gambiense variant surface glycoprotein LiTat 1.3 (Lille Trypanozoon antigen type 1.3) (natural protein)
[1]
  stoichiometry N: 3
[2]
  stoichiometry N: 3
